Literature values as cited in publication PMC2827818.

Target: IFNalpha2 (Homo sapiens) (UniProt P01563)

Kd: 10 nM
Substance: IFNAR2 ECD (from UniProt P48551)
